Test results as given in patent publication US20190048074A1 (Regeneron, published 2019).
Where two headings read alike, the source gives them in different places.

T1: full-length human APLNR (human, UniProt P35414 1-380)
T1 sequence: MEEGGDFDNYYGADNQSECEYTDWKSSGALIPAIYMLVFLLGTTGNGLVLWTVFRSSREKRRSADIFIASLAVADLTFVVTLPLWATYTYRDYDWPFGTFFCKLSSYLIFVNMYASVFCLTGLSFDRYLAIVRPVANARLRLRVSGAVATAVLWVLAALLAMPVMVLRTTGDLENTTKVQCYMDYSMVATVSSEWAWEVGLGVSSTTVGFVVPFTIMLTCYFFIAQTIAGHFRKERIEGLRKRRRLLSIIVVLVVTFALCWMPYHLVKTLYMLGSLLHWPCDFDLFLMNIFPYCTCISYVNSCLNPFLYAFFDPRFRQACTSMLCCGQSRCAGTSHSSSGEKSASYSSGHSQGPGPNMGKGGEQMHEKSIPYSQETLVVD

T2: full length cynomolgus APLNR (cynomolgus monkey (Macaca fascicularis), UniProt O97666 1-380 (rhesus entry))
T2 construct: Stably expressed on HEK293/CRE-luc/MfAPLNR cells; also called MfAPLNR; mfAPLNR
T2 sequence: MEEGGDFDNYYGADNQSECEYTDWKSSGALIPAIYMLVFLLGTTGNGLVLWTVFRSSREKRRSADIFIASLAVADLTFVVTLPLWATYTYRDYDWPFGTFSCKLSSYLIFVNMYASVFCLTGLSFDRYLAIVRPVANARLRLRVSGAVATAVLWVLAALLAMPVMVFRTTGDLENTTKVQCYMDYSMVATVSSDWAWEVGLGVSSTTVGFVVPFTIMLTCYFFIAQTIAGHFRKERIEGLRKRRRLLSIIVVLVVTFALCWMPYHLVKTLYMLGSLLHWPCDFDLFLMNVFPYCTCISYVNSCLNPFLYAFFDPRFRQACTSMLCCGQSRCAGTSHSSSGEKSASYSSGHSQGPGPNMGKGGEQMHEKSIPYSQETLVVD


Assays:
full-length human APLNR [1] = molecular target: T1, full-length human APLNR; experiment: cell-based or functional assay
full-length human APLNR [2] = molecular target: T1, full-length human APLNR; experiment: cell-based or functional assay; remark: listed apart in the source
full-length human APLNR [3] = molecular target: T1, full-length human APLNR; experiment: FACS, 10 µg/mL antibody, HEK293/CRE-luc/hAPLNR cells
[4] = molecular target: T2, full length cynomolgus APLNR; experiment: FACS, 10 µg/mL antibody, HEK293/CRE-luc/MfAPLNR cells
full-length human APLNR [5] = molecular target: T1, full-length human APLNR; experiment: cell-based or functional assay; remark: listed apart in the source
full-length human APLNR [6] = molecular target: T1, full-length human APLNR; experiment: cell-based or functional assay; remark: listed apart in the source
full-length human APLNR [7] = molecular target: T1, full-length human APLNR; experiment: FACS, 10 µg/mL antibody, HEK293/CRE-luc/hAPLNR cells; remark: listed apart in the source
[8] = molecular target: T2, full length cynomolgus APLNR; experiment: FACS, 10 µg/mL antibody, HEK293/CRE-luc/MfAPLNR cells; remark: listed apart in the source

% Inhibition at 100 nM antibody, in the presence of 100 ρM Apelin (at 5 µM Forskolin) (full-length human APLNR [2])	Binding Ratio of Geom. Mean to Unstained Cells (full-length human APLNR [3])	Binding Ratio of Geom. Mean to Unstained Cells [4]	% Activation at 500 nM mAb (at 7.5 uM Forskolin) (full-length human APLNR [6])	IC50 [M], in the presence of 100 ρM Apelin (at 5 µM Forskolin) (full-length human APLNR [2])	Binding Ratio of Geom. Mean to Unstained Cells (full-length human APLNR [7])	Binding Ratio of Geom. Mean to Unstained Cells [8]	Binder	also measured
							H4H9209N (antibody, V domains shown) VH: EVQLLESGGGLVQPGGSLRLSCAASGFTFSNYAMNWVRQAPGRGLEWVSAIHYDGSNSYYADSVKGRFTISRDNSKNTLYLQMNSLRAEDTAIYYCAILSRVYWGQGTLVTVSS VL: DIQMTQSPSSLSASVGDRVTITCRASQGINNYLAWFQQKPGKAPKSLIYATSSLQSGVPSKFSGSGSGTDFTLTISSLQPEDFATYYCQQYNSYPLTFGGGTKVEIK	% Inhibition at 100 nM mAb, in the presence of 100 ρM Apelin (at 10 µM Forskolin) (full-length human APLNR [1]): 16%; IC50 [M], in the presence of 100 ρM Apelin (at 10 µM Forskolin) (full-length human APLNR [1]): 5.9e-09 M
7%							H2aM9209N (antibody, V domains shown) VH: EVQLLESGGGLVQPGGSLRLSCAASGFTFSNYAMNWVRQAPGRGLEWVSAIHYDGSNSYYADSVKGRFTISRDNSKNTLYLQMNSLRAEDTAIYYCAILSRVYWGQGTLVTVSS VL: DIQMTQSPSSLSASVGDRVTITCRASQGINNYLAWFQQKPGKAPKSLIYATSSLQSGVPSKFSGSGSGTDFTLTISSLQPEDFATYYCQQYNSYPLTFGGGTKVEIK	
	2 fold	1 fold					H4H9104P (antibody, V domains shown, Fully human, human IgG4 Fc) VH: QVQLVESGGDLVKPGGSLRLSCAASGFTFSDYYMNWIRQAPGKGLEWVSYISSSGSTIHYADSVKGRFTISRDNAKNLVYLRMNSLRAEDTAVYFCAREREVHDYSDPYFFFYGMDVWGQGTTVTVSS VL: DIQMTQSPSSVSASVGDRVTITCRASQDVSSWLAWYQHKPGKAPKLLIFAASSLQSGVPSRFSGSGSGTDFTLTISSLQSEDFATYYCQQANSFPLTFGGGTKVEIK	
	3 fold	2 fold					H4H9103P (antibody, V domains shown, Fully human, human IgG4 Fc) VH: EVQLVESGGGLVQPGRSLRLSCAASGFTFDDYAMHWVRQVPGKGLEWVSGITWNSGDIGYADSVKGRFTISRDNAKNSLYLQMNSLRAEDTALYYCTKDKDSSGYYGIDVWGQGTTVTVSS VL: DIQMTQSPSSVSASVGDRVTITCRASQGIRTWLAWYQQKPGKAPKLLIYAASSLQSGVPSRFSGSESGTDFTLTISSLQPEDFATYYCQQANSFPFTFGPGTKVDIK	
	2 fold	2 fold					H4H9112P (antibody, V domains shown, Fully human, human IgG4 Fc) VH: QVQLVQSGAEVKKPGASVEVSCKASGYTFTDYYIHWIRQAPGQGLEWMGWINPDSGRTNYAQKFQVRVTMTRDTSITTAYMELNRLKSDDTAVYYCARGPLRGYSGYDFFDYWGQGTLVTVSS VL: DIQMTQSPSSLSAFVGDRVTITCRASQSISSYLNWYQQKPGKAPKLLIYTASTLQRGVPSRFRGSGSGTDFTLTISSLQPEDFATYYCHQTYSIPITFGQGTRLEIK	
11%			21%				H2aM9222N (antibody, V domains shown, Human variable domains, mouse IgG2a Fc) VH: EVQLVESGGGLVQPGGSLRLSCAASGFTFSNYWMSWVRQAPGKGLEWVANIKQDGSERYYVGSVKGRFTISRGDAENSLYLQMNSLRAEDTAVYYCARDRFGYSAYDKGVRYYYGMDVWGQGTTVTVSS VL: DIQMTQSPSSLSASVGDRVTITCRASQGIRNDLGWYQQKPGKAPKRLIYAASSLQSGVPSRFSGSGSGTEFTLTISSLQPEDFATYYCLQHNSYPRTFGQGTKVEIK	Activating EC50 (M), pERK/total ERK assay, CHO/hAPLNR cells (full-length human APLNR [5]): 4.79e-08 M
49%			52%	2.4e-09 M	2940 fold	658 fold	H2aM9230N (antibody, V domains shown, Human variable domains, mouse IgG2a Fc) VH: EVQLVESGGGLVQPGGSLRLSCAASGFTFSSFWMSWVRQVPGKGLQWVANIKQDGSEKYYVDSVKGRFTISRDNAKNSLYLQMNSLRAEDTAVYYCARDRFGYSVYDKGVRYYYGMDVWGQGTTVTVSS VL: DIQMTQSPSSLSVSVGDRVTITCRASQGIRNDLGWYQQKPGKAPKRLIYAASSLQSGVPSRFSGSGSGTEFTLTISGLQSEDFATYYCLQHKSYPRTFGQGTKVEIK	
	2 fold	1 fold					H4H9113P (antibody, V domains shown, Fully human, human IgG4 Fc) VH: QVQLVQSGAEVKKPGASVEVSCKASGYTFTDYYIHWIRQAPGQGLEWMGWINPDSGRTNYAQKFQVRVTMTRDTSITTAYMELNRLKSDDTAVYYCARGPLRGYSGYDFFDYWGQGTLVTVSS VL: DIQMTQSPSSLSASVGDRVTITCRASQGIRNDLGWYQQKPGKAPNRLIYAASSLQSGVPSRFSGSGSGTEFTLTISSLHPEDFATYSCLQHNSFPLTFGGGTKVEIK	
33%			45%	4.3e-09 M	4100 fold	1440 fold	H2aM9227N (antibody, V domains shown, Human variable domains, mouse IgG2a Fc) VH: EVQLVESGGGLVQPGGSLRLSCAASGFTFSSFWMSWVRQVPGKGLEWVANIKQDGSEKYYVDSVKGRFTISRDNAKNSLYLQMNSLRAEDTAVYYCARDRFGYSFYDKGVRYYYGMDVWGQGTTVTVSS VL: DIQMTQSPSSLSVSVGDRVTITCRASQGIRNDLGWYQQKPGKAPKRLIYATSSLQSGVPSRFSGSGSGTEFTLTISGLQPEDFATYYCLQHNSYPRTFGQGTKVEIK	
26%			49%	> 1e-07 M	1490 fold	108 fold	H2aM9228N (antibody, V domains shown, Human variable domains, mouse IgG2a Fc) VH: EVQLVESGGGLVQPGGSLRLSCAASGFTFSNYWMSWVRLAPGKGLEWVANIKQDGSERYYVGSVKGRFTISRGDAKNSLYLQMNSLRAEDTAVYYCARDRFGYSAFDKGVRYYYGMDVWGQGTTVTVSS VL: DIQMTQSPSSLSASVGDRVTITCRASQGIRNDLGWYQQKPGKAPKRLIYAASSLQSGVPSRFSGSGSGTEFTLTISSLQPEDFATYYCLQHNSYPRTFGQGTKVEIK	Activating EC50 (M), pERK/total ERK assay, CHO/hAPLNR cells (full-length human APLNR [5]): 6.41e-08 M
98%				4.2e-09 M	2860 fold	678 fold	H2aM9232N (antibody, V domains shown, Human variable domains, mouse IgG2a Fc) VH: QVKLVESGGGVVQPGRSLRLSCAASGFTFSNYVIHWVRQAPGKGLEWVAVIWYDGSNKYYADSVKGRFTISRDNSKNTLYLQMNSLRAEDTAVYYCARDRVVRGVDYYYYYGLDVWGQGTSVTVSS VL: EIVMTQSPATLSVSPGERATLSCRASQSVRSNLAWYQQKPGQAPRLLIYGASSRATGIPARFSGTGSGTEFTLTISSLQSDDFAVYYCQQYNKWPRTFGQGTKVEIK	Inhibiting IC50 (M), pERK/total ERK assay, CHO/hAPLNR cells (full-length human APLNR [5]): 2.09e-07 M
83%				3e-09 M	2180 fold	1310 fold	H1M9207N (antibody, V domains shown, Human variable domains, mouse IgG1 Fc (H1M prefix)) VH: EVQLVESGGGLAQPGGSLRLSCAASGFTFSNYWMSWVRQAPGKGLEWVANIKQDGSEKYYLESVKGRFTISRDNAKNLLYLQMNSLRAEDTAVFYCARPGLLRFLEPGRRYYSGMNVWGQGTTVTVSS VL: DIQLTQSPSFLSASVGDRVTITCWASQGIRSYLAWYQQKPGKAPKLLIYAASTLQSGVPSRFSGSGSGTEFTLTISSLQPEDFATYYCQQFNSYPWTFGQGTKVEIK	
	3 fold	2 fold					H4H9101P (antibody, V domains shown, Fully human, human IgG4 Fc) VH: QVQLVQSGAEVKKPGASVEVSCKASGYTFTDYYIHWIRQAPGQGLEWMGWINPDSGRTNYAQKFQVRVTMTRDTSITTAYMELNRLKSDDTAVYYCARGPLRGYSGYDFFDYWGQGTLVTVSS VL: DIQLTQSPSFLSASVGDRVTITCWASQGISSYLAWYQQKPGKAPKLLIYAASTLQSGVPSRFSGSGSGTEFTLTISSLQPEDFASYFCQQLNSNPRTFGQGTKVEIK	
